Measured values taken from PMC11096381.

Target: serum immunoglobulin M (IgM), endogenous mouse (mouse (endogenous in C57BL/6 mice))
Test: SEC + other: SDS-PAGE with western blot keeping disulfide bonds; peritoneal fluid and serum of healthy WT mice (0 h); 7.5% SDS-PAGE under conditions that prevent disruption of CD5L-IgM disulfide bonds, western blot for CD5L, densitometry of IgM-bound and free bands; WT serum also fractionated on Superose 12 10/300 GL in PBS and fractions blotted for CD5L and IgM

- percent of CD5L bound to IgM: > 90%
B1: CD5 antigen-like (CD5L), endogenous mouse protein (natural protein)
chain: ESPTKVQLVGGAHRCEGRVEVEHNGQWGTVCDDGWDRRDVAVVCRELNCGAVIQTPRGASYQPPASEQRVLIQGVDCNGTEDTLAQCELNYDVFDCSHEEDAGAQCENPDSDLLFIPEDVRLVDGPGHCQGRVEVLHQSQWSTVCKAGWNLQVSKVVCRQLGCGRALLTYGSCNKNTQGKGPIWMGKMSCSGQEANLRSCLLSRLENNCTHGEDTWMECEDPFELKLVGGDTPCSGRLEVLHKGSWGSVCDDNWGEKEDQVVCKQLGCGKSLHPSPKTRKIYGPGAGRIWLDDVNCSGKEQSLEFCRHRLWGYHDCTHKEDVEVICTDFDV
